Source: paper PMC4713135

Biological target: EGFP-Rab5 (wild type) (UniProt P20339)
Experiment: FRET or BRET

Sequence of UniProt P20339 (P20339 whole entry): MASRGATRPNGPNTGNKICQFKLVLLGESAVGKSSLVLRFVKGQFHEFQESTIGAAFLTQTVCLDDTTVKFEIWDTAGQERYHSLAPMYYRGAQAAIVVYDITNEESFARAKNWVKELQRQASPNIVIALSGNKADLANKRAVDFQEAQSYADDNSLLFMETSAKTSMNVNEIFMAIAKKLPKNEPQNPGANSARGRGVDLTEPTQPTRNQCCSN

FRET efficiency: 10%
B1: mRFP-DRG2 (human DRG2) (natural protein)
chain: MGILEKISEIEKEIARTQKNKATEYHLGLLKAKLAKYRAQLLEPSKSASSKGEGFDVMKSGDARVALIGFPSVGKSTFLSLMTSTASEAASYEFTTLTCIPGVIEYKGANIQLLDLPGIIEGAAQGKGRGRQVIAVARTADVIIMMLDATKGEVQRSLLEKELESVGIRLNKHKPNIYFKPKKGGGISFNSTVTLTQCSEKLVQLILHEYKIFNAEVLFREDCSPDEFIDVIVGNRVYMPCLYVYNKIDQISMEEVDRLARKPNSVVISCGMKLNLDYLLEMLWEYLALTCIYTKKRGQRPDFTDAIILRKGASVEHVCHRIHRSLASQFKYALVWGTSTKYSPQRVGLTHTMEHEDVIQIVKK
